Publication PMC8843702 (2022)

B1: P5-22 (antibody, V domains shown)
VH: EVQLVESGGGLVKPGGSLRLSCAASGFTFRDYDIIWIRQAPGKGLEWVSYISRSGSTIYYSDSVRGRFTISRDNAKNSVYLQMNSLRAEDTAVYYCARDFGFEGPRMDVWGQGTTVTVSS
VL: DIQMTQSPSSLSASVGDRVTITCQASQDIKNYLNWYQQKPGKAPKLLIYDASNLETGVPSRFSGSGSGTDFTFTISSLQPEDIATYYCQQFDNLPITFGQGTRLEIK
B2: polymeric P5-22 (antibody, V domains shown)
VH: EVQLVESGGGLVKPGGSLRLSCAASGFTFRDYDIIWIRQAPGKGLEWVSYISRSGSTIYYSDSVRGRFTISRDNAKNSVYLQMNSLRAEDTAVYYCARDFGFEGPRMDVWGQGTTVTVSS
VL: DIQMTQSPSSLSASVGDRVTITCQASQDIKNYLNWYQQKPGKAPKLLIYDASNLETGVPSRFSGSGSGTDFTFTISSLQPEDIATYYCQQFDNLPITFGQGTRLEIK

Tests used:
Experiment in all cases: SPR
[1] = molecular target: T1, WT SARS-CoV-2 S RBD protein (SARS-CoV-2, UniProt P0DTC2)
SARS-CoV-2 S protein = SARS-CoV-2 S protein (SARS-CoV-2, UniProt P0DTC2)
[2] = molecular target: T1, WT SARS-CoV-2 S RBD protein; remark: listed apart in the source

Binder	Kd [1] [pM]	Kd (SARS-CoV-2 S protein) [pM]	koff [2] [s⁻¹]
B1	< 4.59	< 3.34	< 1e-05
B2	< 0.498		< 1e-05
